T1: SNV nucleocapsid protein N wild type (SNVN) (Sin Nombre hantavirus, UniProt Q89462 1-428)
T1 sequence: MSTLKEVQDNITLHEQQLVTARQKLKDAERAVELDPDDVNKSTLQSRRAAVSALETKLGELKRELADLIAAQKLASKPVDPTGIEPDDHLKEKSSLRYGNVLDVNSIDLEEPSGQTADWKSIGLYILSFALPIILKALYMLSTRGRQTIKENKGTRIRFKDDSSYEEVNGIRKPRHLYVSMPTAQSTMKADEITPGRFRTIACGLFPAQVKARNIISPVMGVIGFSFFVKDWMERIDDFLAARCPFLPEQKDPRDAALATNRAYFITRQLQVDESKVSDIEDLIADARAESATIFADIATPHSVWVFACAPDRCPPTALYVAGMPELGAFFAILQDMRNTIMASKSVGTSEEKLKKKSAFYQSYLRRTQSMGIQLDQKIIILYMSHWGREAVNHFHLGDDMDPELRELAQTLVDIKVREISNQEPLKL


Assays:
[1] = molecular target: T1, SNV nucleocapsid protein N wild type …; test: BLI
[2] = molecular target: T1, SNV nucleocapsid protein N wild type …; test: filter binding
[3] = molecular target: T1, SNV nucleocapsid protein N wild type …; test: BLI; remark: listed apart in the source
[4] = molecular target: T1, SNV nucleocapsid protein N wild type …; test: filter binding; remark: listed apart in the source

| Binder | Kd [1] [nM] | Kd [2] [nM] | Kd [3] [nM] | binding signal [4] |
| --- | --- | --- | --- | --- |
| GAUAUGUGAG (ssRNA, 5' mRNA cap (enzymatic, Cell Script)) [capped decameric RNA] | 107.8 ± 0.7 | 120 ± 0.6 | 106 ± 5.7 |  |
| GAUAUGUGAG (ssRNA) [uncapped decameric RNA] |  |  | 477 ± 6.8 | ~4 fold lower affinity than capped |
